Test results taken from patent US20200109211A1 (ELSALYS BIOTECH, published 2020).

Assays:
[1] = molecular target: T1, human CD160 (CD160 GPI isoform) on cells (human, UniProt O95971 25-159, GPI anchor); assay: flow cytometry, percentage of labelled YT2C2 NK cells (2x10^5 cells), antibody 0.39 to 50 nM [panel C]
T1 construct: whole, on cells; Used for all cells said to carry human CD160: transfected CHO-S and E300 cells and cells that carry it naturally (YT2C2, blood NK, CD8+ T, T CD4, CLL cells); also called hCD160; CHO-S-hCD160 (clone 2G10)
T1 sequence (looked up): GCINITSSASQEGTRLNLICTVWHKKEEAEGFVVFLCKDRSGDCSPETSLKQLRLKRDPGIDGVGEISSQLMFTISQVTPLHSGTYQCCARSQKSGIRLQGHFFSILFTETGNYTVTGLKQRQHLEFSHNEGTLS
Procedure: (§1) The binding capacity of the anti-CD160 H7 antibody and of the H7 D12 variant in the IgG4, Fab and Fab-linker Fab format was evaluated during the labelling of surface CD160 expressed naturally on a clone of NK cell line (YT2C2), by measuring the percentage of cell labelled=percentage of binding (see FIG. 1C). For this, 2×10⁺⁵ YT2C2 cells were labelled with increasing concentration of antibodies (from 50 nM to 0.39 nM) and also with the appropriate control isotype. […] In FIG. 1C, IgG4 variants ELB01103 and ELB01104 bind more efficiently to the YT2C2 cells than the H7 IgG4 ELB01101 (which results in a EC₅₀ increased by a factor of 10 compared with H7 IgG4). This is also true for the Fab-linker-Fab format ELB01132. By contrast Fab format ELB01122 bind less efficiently to the YT2C2 cells than the H7 IgG4 ELB01101 (which results in a EC₅₀ decreased by a factor of 2 compared with H7 IgG4). This is certainly due to the monovalency of the Fab format.

[2] = molecular target: T2, recombinant human CD160 protein, soluble form, with a C-terminal tag of 6 histidine residues (R&D SYSTEMS) (human, UniProt O95971 27-159, limits assumed, biotinylated with EZ-Link sulfo-NHS-LC-biotin for BLI and ELISA; not biotinylated when immobilised on the CM5 chip for SPR); assay: BLI, biotinylated CD160 at 10 nM on streptavidin sensor, antibody 3.13-100 nM
T2 construct: domain: soluble form; Bought protein; also called hCD160-his; biotinylated CD160
T2 sequence: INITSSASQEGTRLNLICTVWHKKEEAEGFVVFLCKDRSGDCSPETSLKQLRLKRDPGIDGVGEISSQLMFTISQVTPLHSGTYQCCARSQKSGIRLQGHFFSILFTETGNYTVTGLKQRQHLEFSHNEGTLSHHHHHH

[3] = molecular target: T2, recombinant human CD160 protein, …; assay: BLI
[4] = molecular target: T1, human CD160 (CD160 GPI isoform) on cells; assay: flow cytometry on CHO-hCD160 transfectants
Procedure: The binding capacity of the anti-CD160 H7 antibodies and of the variants (D12 and A09) thereof in the IgG4 and IgG1 format and in the IgG1 E345K format was evaluated during the labelling of surface CD160 expressed in a recombinant line CHO-S-hCD160 (clone 2G10) in comparison with non-transfected CHO-S cells, by measuring the median fluorescence index (MFI) (see FIG. 1). For this, 5×10⁺⁵ 2G10 (CHO-S-CD160) and non-transfected CHO-S cells were labelled with 2 μg of each of these antibodies and also with the appropriate control isotypes. In FIG. 1, all the anti-CD160 tested (regardless of the isotype or the IgG format or the variant) specifically recognize human CD160 expressed recombinantly by the CHO-S cells.
In FIG. 1B, the IgG4 variants bind more efficiently to the CHO-hCD160 transfectants than H7 (which results in a median fluorescence increased by a factor of 2 compared with H7 IgG4 ELB01101 or with H7 IgG4 H310A-H435Q ELB01102), this being even in the presence of the H310A-H435Q mutations.

[5] = molecular target: T2, recombinant human CD160 protein, …; assay: SPR (Biacore), design close to Example 2
[6] = molecular target: T2, recombinant human CD160 protein, …; assay: BLI (repeats Table 8)
[7] = molecular target: T1, human CD160 (CD160 GPI isoform) on cells; assay: flow cytometry, percentage of labelled YT2C2 NK cells, antibody 0.39-50 nM; the text means better binding
Procedure: as §1

[8] = molecular target: T1, human CD160 (CD160 GPI isoform) on cells; assay: FACS on CHO cells overexpressing hCD160, soluble Fab in periplasmic extract
Excerpt: (§2) The binding of the clones selected (from the rounds of selection on CD160 protein and on CHO-CD160 cells) as soluble Fab was also looked at by ELISA and FACS using periplasmic extracts (P.E). The binding of the soluble Fabs to the human CD160 protein, using ELISA, was detected using an anti-c-myc antibody followed by an anti-mouse HRP conjugated antibody. The binding of the soluble Fabs to the CHO cells overexpressing human CD160 was detected using an anti-c-myc antibody followed by a goat anti-mouse APC conjugated antibody. The results of the ELISA and FACS experiments using Fabs expressed at the surface of the phages or in periplasmic extracts confirmed the binding capacity of each of the affinity-matured H7 clones to human CD160.

[9] = molecular target: T2, recombinant human CD160 protein, …; assay: phage ELISA, Fab on phage
Excerpt: (§3) Thus, phage clones were generated and also made it possible to produce periplasmic extracts of bacteria, containing unpurified soluble Fabs. The individual clones were selected for their binding capacity to the human CD160 protein, by ELISA, and to cells expressing human CD160 by FACS, this being i) either in the form of gene III-Fab fusion proteins expressed at the surface of the filamentous phage or ii) in the form of periplasmic extracts containing fragments of unpurified soluble Fabs. The individual clones (in the form of periplasmic extracts containing fragments of soluble Fabs) were also classified according to their kinetic dissociation constant (kdis).
(§4) From a practical point of view, the binding of the phage to human CD160 was detected using an anti-M13 HRP conjugated antibody. The binding of the phage to the cells expressing CD160 was detected using a mouse anti-M13-biotin antibody followed by Streptavidin-PE.

[10] = molecular target: T2, recombinant human CD160 protein, …; assay: SPR (Biacore 3000), hCD160 on CM5 chip, periplasmic extract with soluble Fab diluted 1:5
Procedure: The binding capacity of the H7 variants was also tested by surface plasmon resonance (SPR). For this, a Biacore 3000 (GE Healthcare) was used. […] The integrity of the immobilized human CD160 was confirmed using the anti-huCD160 H7 IgG1 antibody. For the kinetic measurements, concentrations in cascade of human ECD160 with two-fold dilutions (0.15 μM-10 μM) were injected, twice, in PBS, with a Biacore P20 buffer at 25° C. and a flow rate of 30 μl/min.
The regeneration conditions were tested and 10 pi of 10 mM NaOH/1M NaCl were injected for the regeneration between the sample injections. To analyse the binding of the clones to human CD160, the periplasmic extracts containing the soluble Fabs were diluted to 1:5 in BIACORE P20 buffer (10 mM Hepes, 150 mM NaCl, 3 mM EDTA, 0.005% Tween-20) with a flow rate of 30 μl/min for 120 seconds for the association; the dissociation was measured for 300 seconds.
The maximum absolute response of the binding of each of these variants (expressed as measurement of arbitrary response units at time=120 seconds post-injection of the antibody) was evaluated on a surface coated with CD160 protein.

[11] = molecular target: T1, human CD160 (CD160 GPI isoform) on cells; assay: phage FACS on CHO cells expressing hCD160
Excerpt: as §3, §4

[12] = molecular target: T2, recombinant human CD160 protein, …; assay: ELISA, soluble Fab in periplasmic extract
Excerpt: as §2

Binder	P.E FACS (% binding) [8] [%]	Phage ELISA O.D450 nm on biotinylated CD160 [9] [OD450]	Biacore R.U ratio (variant/FaWT 2E07) [10] [fold]	Biacore R.U ratio (variant/H7 WT) [10] [fold]	Binding response, RU arbitrary unit (at t = 120 s post-mab injection) [10] [RU]	Phage FACS (% binding) [11] [%]	P.E ELISA O.D450 nm on biotinylated CD160 [12] [OD450]	also measured
D12 IgG4 S228P/R409K/H310A/H435Q (antibody, also called ELB01104; H7 IgG4 D12 S228P/R409K/H310A/H435Q) heavy: QVQLVQSGAEVKKPGASVKVSCKASGYTFSDFWMQWIRQAPGQGLEWIGAIYPGDDDARVTQKFRGRATLTADKSTSTAYMELSSLRSEDTAVYYCARRGIAAVVGGFDYWGQGTTLTVSSASTKGPSVFPLAPCSRSTSESTAALGCLVKDYFPEPVTVSWNSGALTSGVHTFPAVLQSSGLYSLSSVVTVPSSSLGTKTYTCNVDHKPSNTKVDKRVESKYGPPCPPCPAPEFLGGPSVFLFPPKPKDTLMISRTPEVTCVVVDVSQEDPEVQFNWYVDGVEVHNAKTKPREEQFNSTYRVVSVLTVLAQDWLNGKEYKCKVSNKGLPSSIEKTISKAKGQPREPQVYTLPPSQEEMTKNQVSLTCLVKGFYPSDIAVEWESNGQPENNYKTTPPVLDSDGSFFLYSKLTVDKSRWQEGNVFSCSVMHEALHNQYTQKSLSLSLG light: EIVLTQSPATLSLSPGERATLSCRASQSISNHLHWYQQKPGQAPRLLIKYASQSISGIPARFSGSGSGTDFTLTISSLEPEDFAVYFCQQSNSWPLTFGGGTKVEIKRTVAAPSVFIFPPSDEQLKSGTASVVCLLNNFYPREAKVQWKVDNALQSGNSQESVTEQDSKDSTYSLSSTLTLSKADYEKHKVYACEVTHQGLSSPVTKSFNRGEC	–	–	–	–	–	–	–	EC50 (read off the curve) [1]: ~3 nM; Kd [2]: 1.49 nM; koff [2]: 0.000744 s⁻¹; kon [2]: 499000 M⁻¹ s⁻¹; Gain in KD/respective IgG [3]: 2 fold; median fluorescence, factor against H7 IgG4 H310A-H435Q ELB01102 [4]: 2 fold; Gain in KD/respective IgG [5]: 2.9 fold; Kd [5]: 5 nM; koff [5]: 0.00123 s⁻¹; kon [5]: 244000 M⁻¹ s⁻¹; Kd [6]: 1.49 nM; koff [6]: 0.000744 s⁻¹; kon [6]: 499000 M⁻¹ s⁻¹; EC50, factor against H7 IgG4 (ELB01101) [7]: 10 fold
FJ1516MP02A12 (H7 VH family 3) Fab clone (Fab, V domains shown, Tested as Fab on phage and as soluble Fab in periplasmic extract) VH: QVQLVQSGAEVKKPGASVKVSCKASGYTFTDYWMQWIRQAPGQGLEWIGAIYPGDDDAQFTQKFRGRATLTADKSTSTAYMELSSLRSEDTAVYYCARRGIAAVVGGFDYWGQGTTLTVSS VL: EIVLTQSPATLSLSPGERATLSCRASQSISNHLHWYQQKPGQAPRLLIKYASQSISGIPARFSGSGSGTDFTLTISSLEPEDFAVYFCQQSNSWPLTFGGGTKVEIK	1.23	6	1.5	3.3	20.1	92.1	0.148	–
FJ1516MP02G05 (H7 VH family 4) Fab clone (Fab, V domains shown, Tested as Fab on phage and as soluble Fab in periplasmic extract) VH: QVQLVQSGAEVKKPGASVKVSCKASGYTFADYWMQWIRQAPGQGLEWIGAIYPGDDDAQYTQKFRGRATLTADKSTSTAYMELSSLRSEDTAVYYCARRGIAAVVGGFDYWGQGTTLTVSS VL: EIVLTQSPATLSLSPGERATLSCRASQSISNHLHWYQQKPGQAPRLLIKYASQSISGIPARFSGSGSGTDFTLTISSLEPEDFAVYFCQQSNSWPLTFGGGTKVEIK	1.06	3.46	1.2	2.6	16	86.9	0.141	–
FJ1516MP02D09 (H7 VH family 2) Fab clone (Fab, V domains shown, Tested as Fab on phage and as soluble Fab in periplasmic extract) VH: QVQLVQSGAEVKKPGASVKVSCKASGYTFSESWMQWIRQAPGQGLEWIGAIYPGDDEARVTQKFRGRATLTADKSTSTAYMELSSLRSEDTAVYYCARRGIAAVVGGFDYWGQGTTLTVSS VL: EIVLTQSPATLSLSPGERATLSCRASQSISNHLHWYQQKPGQAPRLLIKYASQSISGIPARFSGSGSGTDFTLTISSLEPEDFAVYFCQQSNSWPLTFGGGTKVEIK	1.08	3.63	1.5	3.2	19.3	76.4	0.174	–
